Source: patent US20100022401A1, “Avidin-like proteins from symbiotic bacteria” (LICENTIA OY, priority 2004, published 2010)
Like-named read-outs stand apart in the source and are kept apart here. Marks after values point to notes of the source that are not given here.

B1: Bradavidin-core: C-terminally truncated core form (118 amino acid residues, SEQ ID NO:2) of biotin-binding protein from Bradyrhizobium japonicum, produced in E. coli (protein, listed as Bradyrhizobium japonicum)
chain: QSVNWTWTNQYGSTLAITSFNSNTGAITGTYTNNAANSCDEGKPQGVTGWLAYGNTGTAISFSVNFLGCGSTTVWTGQLNNATGFQGLWYLSLAEAVAWNGISAGADTFTFSSGDKAL
B2: Bradavidin: full length wild-type (138 amino acid residues, SEQ ID NO:1) avidin-like biotin-binding protein from Bradyrhizobium japonicum (protein, listed as Bradyrhizobium japonicum)
chain: QSVNWTWTNQYGSTLAITSFNSNTGAITGTYTNNAANSCDEGKPQGVTGWLAYGNTGTAISFSVNFLGCGSTTVWTGQLNNATGFQGLWYLSLAEAVAWNGISAGADTFTFSSGDKALLTKSGVDLKAGSEKLSNTKK
B3: Avidin: chicken avidin (SEQ ID NO:6), glycosylated biotin-binding protein (protein)
chain: NSARSTPGCPPAAEMVHATSPLLLLLLLSLALVAPGLSARKCSLTGKWTNDLGSNMTIGAVNSRGEFTGTYITAVTATSNEIKESPLHGTQNTINKRTQPTFGFTVNWKFSESTTVFTGQCFIDRNGKEVLKTMWLLRS

Legend:
[1] = Fluorescent biotin conjugate dissociation assay; assay type: binding; details: for Fluorescent biotin kdiss: ArcDia BF560-biotin; for Fluorescent biotin kdiss / Release 1 h of fluorescent biotin conjugate: 50° C.; for Release 1 h of fluorescent biotin conjugate: one hour, presence of excess free biotin; for Fluorescent biotin conjugate dissociation (in words): fluorescent biotin conjugate as ligand
Description: (§1) FIG. 2 Biotin dissociation analysis. (A) The [3H]biotin dissociation rate constant was measured at different temperatures. The values for streptavidin are from Klumb et al. (Klumb et al., 1998). The scale of the Y axis is logarithmic. (B) Release of fluorescent biotin conjugate from avidins was studied as a function of time in the presence of excess D-biotin at 50° C.
(§2) Ligand binding properties were studied both by [3H]biotin assay and fluorescent biotin conjugate assay. The dissociation rate constant of [3H]biotin (Amersham) from the bradavidins and avidin was measured at various temperatures as described in detail previously (Klumb et al., 1998). According to the results, (Table I, FIG. 2) the faster dissociation rate measured from bradavidin indicates weaker affinity toward the radiobiotin than those of avidin and streptavidin. The dissociation rate of a fluorescent biotin conjugate (ArcDia BF560™-biotin) was measured as previously described (Hytönen et al., 2004a) at 50° C.
(§3) The apparent molecular mass is indicated and followed by the theoretical mass in brackets. Transition temperature (Tr) indicates the temperature in which half of the protein is tetrameric and half monomeric in the absence (first value) and presence (second value) of biotin. In addition to the measured dissociation rate constant (kdiss), the release percentage of the fluorescent biotin conjugate in one hour in the presence of excess free biotin is indicated. Calculated isoelectrical point (pI) and the number of cysteine residues per monomer are also indicated.

[2] = SDS-PAGE based thermal stability (heat treatment); assay type: physicochemical
Description: The thermal stability characteristics of the proteins were studied by a SDS-PAGE based method as previously described in detail by (Bayer et al., 1996).
as §3

[3] = [3H]biotin dissociation rate assay; assay type: binding; details: radio-biotin, different temperatures
Description: as §1, §2

[4] = values from Bayer et al., 1996, cited from earlier work

Row | Molecule | Fluorescent biotin kdiss [1] | Release 1 h of fluorescent biotin conjugate [1] | Heat treatment SDS-PAGE Tr (transition temperature, half tetrameric and half monomeric) ([2]; absence of biotin) | Heat treatment SDS-PAGE Tr (transition temperature, half tetrameric and half monomeric) ([2]; presence of biotin) | [3H]biotin dissociation rate (in words) [3] | Fluorescent biotin conjugate dissociation (in words) [1] | Heat treatment SDS-PAGE Tr (transition temperature) ([4]; absence of biotin) | Heat treatment SDS-PAGE Tr (transition temperature) ([4]; presence of biotin)
1 | B1 | 1.2e-05 s⁻¹ | 4.4% | 70^ ° C. | 85 °C |  |  |  | 
2 | B2 | 1.5e-05 s⁻¹ | 4.7% | 65^ ° C. | 85 °C | fastest dissociation rate | very slow and small release |  | 
3 | B3 | 0.00027 s⁻¹ | 71.5% |  |  | clearly the slowest dissociation | clearly the fastest in dissociation | 58^a ° C. | 100^a ° C.
